Target: BG505 SOSIP.664 Env trimer (HIV-1 (BG505))
Test: BLI; biotinylated BG505 SOSIP.664 trimer (10 µg/mL) captured on Streptavidin biosensors; ScFv in 2-fold dilution series starting at 500 nM; 1:1 binding model, global fit; KD = koff/kon

VRC01 ScFv (parental ScFv)
Kd: < 1 pM | koff: < 1e-07 s⁻¹
